Measurements taken from patent US20250134988A1.

Molecular target: CoV2_5P_FPKO1 (SARS-CoV-2) (UniProt P0DTC2)
Assay: ELISA

**Q.** With CR3022 (antibody) as the substance, how does the EC50 (read off the curve) read?
**A.** Its EC50 (read off the curve) is 0.01 µg/mL.
